Test results published in the RNAGym collection of RNA variant scans (doi:10.1073/pnas.2313332121).
Fewer inactive variants are shown than the library holds.

B1: TPR 5TU (parent)
chain: GGAUCUUCUCGAUCUAACAAAAAAGACAAAUCUGCCACAAAGCUUGAGAGCAUCUUCGGAUGCAGAGGCGGCAGCCUUCGGUGGCGCGAUAGCGCCAACGUUCUCAACUAUGACACGCAAAACGCGUGCUCCGUUGAAUGGAGUUUAUCAUG

Variants of: B1
Experiment: polymerase ribozyme fitness, log enrichment relative to wild type (log ratio); higher = more active; in vitro selection for triplet polymerase activity
How it was run: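 Mutant libraries were PCR-built and transcribed for each subunit of a heterodimeric triplet polymerase ribozyme and selected for one round in triplicate at −7 °C, frozen, before gel excision of extended constructs and streptavidin-bead capture. Input and output libraries were Illumina-sequenced, keeping genotypes with ≥10 input reads and ≥1 read per output. Fitness is a logarithmic ratio of genotype to wild-type enrichment, in base 2, using inverse-variance-weighted replicate averages.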

Variant | polymerase ribozyme fitness (log ratio)
A22U U56A A106U A107C A142G | ≤ -4.2
A21C U90A G94C | ≤ -4.2
A21U G84U | -1.29
A21G G84C A113U | -4.09
A22U A24C A40U U55A C85A G117C G136U A138C | ≤ -4.2
A21U G34A C93U C99G C149G | ≤ -4.2
A22C U33A G50A A66U C93U G100C A138G C149A | ≤ -4.2
A22U A73G U82A | 1.72
A21U C87U C96U C131G | ≤ -4.2
A21G G25C G34A A49G C72U G92C G112U | ≤ -4.2
A22C G42U A49G C51U G92A U130G | ≤ -4.2
A21C A29U C43A U55A G83A A107C | ≤ -4.2
A22C A26U U31C A37C U56C A73C A91C | ≤ -4.2
A21C U45A A64G G92A | -3.46
A21C C96U | 0.207
A22U C96U C118U | -0.15
A22U G50U C96A G136C A142G | ≤ -4.2
A22U A39U U44G C51A G141C U146C A150G | ≤ -4.2
A21U C75G G86A U101C | -4.03
A21U G58C A73G C85G | -1.7
A21U U61A G88A | ≤ -4.2

Variant | polymerase ribozyme fitness (log ratio)
A21U A26C C69A G84U | -3.67
A22U U53A G88A C116G A142G A150C | ≤ -4.2
A22U A30G C85G U104A C105A U111G | ≤ -4.2
A21U C43U C99G A120G G126U | ≤ -4.2
A22U C57G C93G U151G | ≤ -4.2
A21U U82C | 0.17
A22G U56A C96G U101C G143A U148A | ≤ -4.2
A22G C85U G133C | -1.48
A23C A30U G50A C54A C93G C95U G124A | ≤ -4.2
A22C A23G C93G C149U | ≤ -4.2
A21C U53G C87A C95A C149G | ≤ -4.2
A21U C85A A97U | -2.01
A21U C32A G58C | ≤ -4.2
A22C A47C A73U G83U G84A C95U C103G C116U G140C | ≤ -4.2
A22U G92C C93U A119G | -3.96
A22U A40C G65A | -3.81
A21G G88A U90C U127C U135G C149U | ≤ -4.2
A21G A29G G83C A98U | ≤ -4.2
A22C G92C C114U A150C | ≤ -4.2
A21U U55A C93G A97U A115U | ≤ -4.2
A23C C35A C36G C54A A137G U148G | ≤ -4.2

Variant | polymerase ribozyme fitness (log ratio)
A21U C35U C129U | -0.6
A21U C75G | -4.03
A22U U55G A73C G86A C116A A142U | ≤ -4.2
A22U C76U | 0.515
A21U C96A G136A | 0.203
A22U G141C | 1.14
A23C A39G C63U U104C C108G U135C | ≤ -4.2
A22U G46A | 0.387
A21G A49G C63G C96U A98U C125G | -0.663
A21C C43A G50C G74C C76A C87A A91G A119G | ≤ -4.2
A22U A49U G81U G86C G141C | -4.13
A21U C51U G126U | 0.375
A22U A29C A47G U134C U139A | ≤ -4.2
A23C C108G A115G A138U U148C | ≤ -4.2
A21C C87U | 0.0419
A22C C36U C51A C75G C87U | ≤ -4.2
A21C C32G G50A C93U A119U | ≤ -4.2
A21U C96U C108U C132A | ≤ -4.2
A22C C51A C93G A98C C116U U135C | ≤ -4.2
A22G C51U G83A | 0.818
A21U G80A | -0.249

Variant | polymerase ribozyme fitness (log ratio)
A22U C32U U55G U56C C75A G88U C105U A142U | ≤ -4.2
A21G C27G C114U U135G U146A U148G | ≤ -4.2
A21U C95U C99U | -0.768
A21U C63U G84A | -0.545
A22C A121U | -0.324
A21U C85U G124A G126A G136A | -3.04
A21U A23C C38A C99G A142C | ≤ -4.2
A22C U101G | 0.0923
A21G G58A A122U U145G | 0.687
A22U C96U A121U U139A | -4.03
A23C C57U G74C G92U U102A A115C G143C U151A | ≤ -4.2
A22U C36U U78C U146C | -3.63
A23C A39U G46U U90A C96A C99U C114G G141C | ≤ -4.2
A22C A29C G68A G81A C85A C105G A142U | ≤ -4.2
A22C G62U A73U G88U C99U C118A U144C | ≤ -4.2
A21G G50U G92U A147C | -0.875
A22C G84C G133U | ≤ -4.2
A22C A41C G50A A115G | -3.63
A22U A41C A52U G124U | -2.3
A21U U56A G140A G141A | -4.17
